Laboratory results published in paper PMC9409239.

Target: N-terminally His-tagged recombinant ribosomal protein S1 of E. coli (from plasmid p16rpsAHis) (E. coli) (UniProt P0AG67)
Assay: native gel or EMSA; constant molar amount of S1 mixed with increasing RIII (RIII:S1 0.1:1 to 5:1), 10 min at room temperature, proteins dialysed against 50 mM sodium phosphate pH 7.4, 100 mM NaCl; native 14% PAGE, Coomassie

Work on “N-terminally 6His-tagged RIII protein of the T4 phage (from plasmid p21drIIIHis) (natural protein)” yielded a stoichiometry N (RIII:S1 molar ratio) of 1.
